According to patent US20060217308A1, “Compositions for the treatment of tumor pathologies, comprising internalin B (ln1B) of Listeria monocytogene protein or a fragment thereof” (priority 2005, published 2006):

Experiments:
Assay type in all cases: cell-based, human
Met [1] = test: Kinetics of phosphorylation of Met after In1B (IP Met, blot phospho-tyrosine); settings: HeLa cells, In1B 5 nM (FIG. 8)
Description: FIG. 8 depicts the kinetics of phosphorylation and ubiquitination of Met. 5 nm of purified In1B was added to HeLa cells for the indicated times. Cell extracts were immunoprecipitated (IP) against Met and blotted (WB) against phospho-tyrosine (P-Tyr), Met or ubiquitin (Ub).
Ligand-induced ubiquitination of RTKs is preceded by phosphorylation of the receptor, which is then recognized and ubiquitinated by the ubiquitin ligase Cbl (33). As previously shown (27), In1B rapidly stimulates Met phosphorylation and the kinetics of ubiquitination of Met follows that of phosphorylation with a maximum at two minutes after stimulation (FIG. 8).

Met [2] = test: Cell surface biotinylation and internalization assay of Met; settings: HeLa cells, In1B two minutes
Description: (A) Hela cells were treated (+) with […] epoximycin, […] clasto-lactacystin-β-lactone (lactone), 20 mM ammonium chloride, or 5 μM bafilomycin A1 (Baf-A1) for 90 minutes before addition of In1B. Cell extracts were loaded in a SDS-PAGE gel followed by immunoblot with anti-Met antibody. […] (B) Surface exposed proteins of Hela cells were biotinylated (Biot +) before addition of In1B. In1B was added for two minutes to allow internalization of Met, then cells were washed and biotin was removed (see methods and text) from the surface. Samples were precipitated with neutravidin agarose and blotted against Met.
Cell surface biotinylation and internalization assay were performed as described before (35). Briefly, the cells were washed in ice-cold PBS, and incubated with 25 mg/ml EZ-link Sulfo-NHS-SS-biotin (Pierce) 15 minutes in PBS pH 8.0, and followed by one wash with serum free media containing 0.1% BSA, followed by one wash in PBS containing Ca and Mg (PBS+CaMg; Gibco). The cells were then warmed to 37° C., incubated with In1B for two minutes, and then cooled down to 4° C. The cells were washed again with PBS+CaMg, and cell-surface debiotinylation was performed by adding 100 mM MESNA in 50 mM Tris-HCl pH 8.6, 100 mM NaCl, 1 mM EDTA and 0.2% BSA (3 times, 10 minutes incubation). […]

Met [3] = test: Nature of In1B-dependent ubiquitination of Met (FK1 versus P4D1 antibodies); settings: HeLa cells, In1B 5 nM, FK1 did not recognize
Description: (A) In1B was added (+) to HeLa cells. Lysates were immunoprecipitated using C12 rabbit polyclonal anti-Met antibody and blotted against Met (DL21 mAb). The same membrane was stripped and blotted against ubiquitin using FK1, a mAb that recognizes poly-ubiquitinated proteins, or P4D1, a mAb that recognizes both poly- and mono-ubiquitinated proteins. (B) Total cell extracts from Hela cells treated with […] epoximycin (lane 2) or […] clasto-lactacystin-β-lactone (lane 3) for 60 minutes, or non-treated cells (lane 1) were blotted against poly-ubiquitin (FK1) or actin. (C) ubiquitin ladder was blotted with FK1 or P4D1. The number of ubiquitin modules is indicated on the right. The molecular weight of protein markers is shown in the left of the panels, in kDa. In D and E, Hela Cells were transfected with siRNA to knock down Cbl expression (RNAi), or with RNA control (Control). (D) Cellular Cbl and actin were detected by immunoblotting. […]
The rapid degradation of Met after In B contact is different from the HGF-dependent degradation, which has been reported to take two hours (19-21), indicating differences in the biochemistry of the process. […] Samples from HeLa cells treated with In1B (5 nM) were immunoprecipitated using an anti-Met antibody, and then Met-immunoprecipitates were analyzed with an anti Met mAb (FIG. 3A1), FK1 (FIG. 3A2) or P4D1 (FIG. 3A3). […]

Sequence of Met (P08581 25-1390): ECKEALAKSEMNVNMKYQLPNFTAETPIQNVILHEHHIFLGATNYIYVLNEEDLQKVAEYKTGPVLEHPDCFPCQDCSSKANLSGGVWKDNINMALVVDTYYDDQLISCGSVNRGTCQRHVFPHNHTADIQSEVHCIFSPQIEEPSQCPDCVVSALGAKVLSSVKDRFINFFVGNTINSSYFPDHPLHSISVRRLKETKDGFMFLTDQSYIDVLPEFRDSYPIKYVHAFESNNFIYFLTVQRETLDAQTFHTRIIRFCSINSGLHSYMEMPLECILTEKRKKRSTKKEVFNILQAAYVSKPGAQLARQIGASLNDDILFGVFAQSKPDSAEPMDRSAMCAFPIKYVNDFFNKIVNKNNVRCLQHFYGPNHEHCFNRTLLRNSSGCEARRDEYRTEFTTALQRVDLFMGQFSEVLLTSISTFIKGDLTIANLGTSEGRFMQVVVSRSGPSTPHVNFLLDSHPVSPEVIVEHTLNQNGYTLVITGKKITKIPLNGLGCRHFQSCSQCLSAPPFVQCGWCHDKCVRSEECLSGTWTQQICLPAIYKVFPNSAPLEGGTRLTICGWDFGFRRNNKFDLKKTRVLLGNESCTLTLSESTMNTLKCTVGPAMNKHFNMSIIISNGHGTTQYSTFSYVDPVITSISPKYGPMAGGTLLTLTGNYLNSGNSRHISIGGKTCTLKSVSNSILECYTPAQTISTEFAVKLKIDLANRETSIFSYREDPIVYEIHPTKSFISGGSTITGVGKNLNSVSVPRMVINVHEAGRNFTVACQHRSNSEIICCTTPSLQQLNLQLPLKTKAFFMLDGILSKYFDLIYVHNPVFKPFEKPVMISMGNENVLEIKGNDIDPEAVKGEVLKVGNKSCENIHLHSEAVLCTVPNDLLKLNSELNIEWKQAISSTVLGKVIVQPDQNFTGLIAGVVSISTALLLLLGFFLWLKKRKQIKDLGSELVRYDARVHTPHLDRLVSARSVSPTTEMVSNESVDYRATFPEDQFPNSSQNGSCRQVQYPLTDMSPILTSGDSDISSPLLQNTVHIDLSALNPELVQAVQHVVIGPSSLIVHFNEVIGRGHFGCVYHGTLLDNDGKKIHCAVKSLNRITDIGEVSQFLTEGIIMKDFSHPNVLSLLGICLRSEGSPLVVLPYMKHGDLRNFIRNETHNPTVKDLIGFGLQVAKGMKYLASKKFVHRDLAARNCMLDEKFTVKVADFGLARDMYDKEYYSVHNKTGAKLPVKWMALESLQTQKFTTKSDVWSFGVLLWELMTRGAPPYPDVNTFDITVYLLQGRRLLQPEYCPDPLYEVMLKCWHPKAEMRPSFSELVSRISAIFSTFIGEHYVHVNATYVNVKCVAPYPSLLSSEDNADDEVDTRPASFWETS

B1: In1B: Listeria monocytogenes surface protein of the internalin family that interacts with Met; purified soluble protein (protein, UniProt P0DQD2 31-630, looked up)
Internalin B: AKVQAETITVPTPIKQIFSDDAFAETIKDNLKKKSVTDAVTQNELNSIDQIIANNSDIKSVQGIQYLPNVTKLFLNGNKLTDIKPLANLKNLGWLFLDENKVKDLSSLKDLKKLKSLSLEHNGISDINGLVHLPQLESLYLGNNKITDITVLSRLTKLDTLSLEDNQISDIVPLAGLTKLQNLYLSKNHISDLRALAGLKNLDVLELFSQECLNKPINHQSNLVVPNTVKNTDGSLVTPEIISDDGDYEKPNVKWHLPEFTNEVSFIFYQPVTIGKAKARFHGRVTQPLKEVYTVSYDVDGTVIKTKVEAGTRITAPKPPTKQGYVFKGWYTEKNGGHEWNFNTDYMSGNDFTLYAVFKAETTEKAVNLTRYVKYIRGNAGIYKLPREDNSLKQGTLASHRCKALTVDREARNGGKLWYRLKNIGWTKAENLSLDRYDKMEYDKGVTAYARVRNASGNSVWTKPYNTAGAKHVNKLSVYQGKNMRILREAKTPITTWYQFSIGGKVIGWVDTRALNTFYKQSMEKPTRLTRYVSANKAGESYYKVPVADNPVKRGTLAKYKNQKLIVDCQATIEGQLWYRIRTSSTFIGWTKAANLRAQK
time of maximum of Met phosphorylation and ubiquitination after stimulation (Met [1]): two | endocytosis of Met (protection of biotinylated Met from MESNA de-biotinylation) (Met [2]): protected Met from de-biotinylation | nature of In1B-dependent ubiquitination of Met (Met [3]): mono-ubiquitination rather than poly-ubiquitination
